Assay [1] deals with human TNFR2 on cells (human) (UniProt P20333). Description: cell-based or functional assay.
The target in assay [2] is monomeric human TNFR2 extracellular domain (human) (UniProt P20333). Put plainly: BLI (Octet Red 96), Human TNFR2 Kd (1-1). In general terms: In BLI a coated tip is dipped into the sample, and binding shifts an interference pattern.
Sequence of monomeric human TNFR2 extracellular domain (human) (P20333 23-257): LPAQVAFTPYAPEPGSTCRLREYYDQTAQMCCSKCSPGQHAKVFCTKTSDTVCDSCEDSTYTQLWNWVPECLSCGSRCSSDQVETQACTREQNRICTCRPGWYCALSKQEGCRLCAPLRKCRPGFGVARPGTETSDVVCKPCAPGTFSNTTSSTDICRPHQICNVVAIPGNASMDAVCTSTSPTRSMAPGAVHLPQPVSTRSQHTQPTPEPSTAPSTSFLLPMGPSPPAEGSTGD

Sequence of human TNFR2 on cells (human) (P20333 23-461): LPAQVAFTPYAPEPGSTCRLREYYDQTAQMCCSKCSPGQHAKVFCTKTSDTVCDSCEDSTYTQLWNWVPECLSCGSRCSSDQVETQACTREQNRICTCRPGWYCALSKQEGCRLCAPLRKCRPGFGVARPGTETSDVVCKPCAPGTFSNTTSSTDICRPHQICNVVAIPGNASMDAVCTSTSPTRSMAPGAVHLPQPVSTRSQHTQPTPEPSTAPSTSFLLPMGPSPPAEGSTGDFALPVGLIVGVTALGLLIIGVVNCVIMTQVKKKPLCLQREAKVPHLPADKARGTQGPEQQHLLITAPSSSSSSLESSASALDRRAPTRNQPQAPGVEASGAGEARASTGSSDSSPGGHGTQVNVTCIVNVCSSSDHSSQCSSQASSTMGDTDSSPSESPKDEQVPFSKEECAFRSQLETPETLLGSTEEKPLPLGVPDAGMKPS

B1: SBT-004 (antibody, V domains shown)
VH: EVQLQQSGPEVGRPGSSVKISCKASGYTFTDYIMHWVKQSPGQGLEWIGWVDPEYGSTDYAEKFKKKATLTADTSSNTAYIQLSSLTSEDTATYFCARDDGSYSPFDYWGQGVMVTVSS
VL: DIQMTQSPPSLSASLGDKVTITCQASQNINKYIAWYQQKPGKAPRLLIRYTSTLESGTPSRFSGSGSGRDYSFSISNVESEDIASYYCLQYVNLLTFGAGTKLEIK
B1: in assay [1], the IC50 (µg/mL) (with pre-incubation); rescue of Jurkat H6 cells from 2 ng/mL TNFα, luminescence stood at 0.09 µg/mL and the IC50 (µg/mL) (without pre-incubation); rescue of Jurkat H6 cells from 2 ng/mL TNFα, luminescence turned out to be 0.1 µg/mL.

B2: chimeric SBT-004 Fc null (antibody, part only; not given: light chain and Fc null constant region, V domains shown, part only)
VH: EVQLQQSGPEVGRPGSSVKISCKASGYTFTDYIMHWVKQSPGQGLEWIGWVDPEYGSTDYAEKFKKKATLTADTSSNTAYIQLSSLTSEDTATYFCARDDGSYSPFDYWGQGVMVTVSS
Consider B2, for which the Kd in assay [2] was determined as 5 nM.

A word on the Kd: it is the concentration at which binding is half-saturated. A lower Kd goes with a tighter complex.

Source of the values: patent US20190202925A1.
